Paper PMC2962499

Biological target: fluorescently labeled SpRpn12 (Schizosaccharomyces pombe) (UniProt P50524)
Test: fluorescence polarisation

Binder: NQFEYGVDPNLDVELALALELSMAEERARQEVAAQKSSEETEDKKMQE (domain or fragment) [SpRpn10 residues 196-243 (UIM-containing C-terminal sequence)]
- Kd: 18 µM
